Test results reported in article PMC9352680, “A comprehensive thermodynamic model for RNA binding by the Saccharomyces cerevisiae Pumilio protein PUF4”.

T1: PUF4 RNA-binding domain (Saccharomyces cerevisiae, UniProt P25339 537-888)
T1 sequence: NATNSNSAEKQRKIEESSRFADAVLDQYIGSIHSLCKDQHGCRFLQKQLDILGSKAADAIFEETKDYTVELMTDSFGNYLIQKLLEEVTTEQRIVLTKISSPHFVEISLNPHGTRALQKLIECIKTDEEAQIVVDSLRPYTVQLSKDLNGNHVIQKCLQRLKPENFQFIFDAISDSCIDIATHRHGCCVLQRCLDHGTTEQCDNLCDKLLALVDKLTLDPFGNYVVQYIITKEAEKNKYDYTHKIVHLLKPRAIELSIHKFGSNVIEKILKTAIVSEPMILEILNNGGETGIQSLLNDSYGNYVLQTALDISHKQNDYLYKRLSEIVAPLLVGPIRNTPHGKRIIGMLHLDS


Target: T1, PUF4 RNA-binding domain
Assay: Mg; RNA-MaP; 20 mM Na-HEPES pH 7.4, 30 mM KOAc, 0.75 mM MgCl2, 0.1% Tween-20, 5% glycerol, 0.1 mg/mL BSA, 2 mM DTT; 25 C; 0.0125-409.6 nM protein
Settings: tags: N-His6-TEV cleaved; C-SNAP kept, Cy3B-labelled; label: tethered on chip by stalled RNA polymerase

| Binder | Kd |
| --- | --- |
| Ic_S4_P5E.1_K5.1_C5.1_H5.1_A5.1_[T5C]_[A7T]_F5.1_[T8C]_T5.1 (ssRNA) RNA: UUUGACAACUGAUCGUUCUUUCUUGUACUUCUAUUCUUUCUCGAUCAGUUGUCUUU | 2.44 nM |
| Ic_S4_P5E.1_K5.1_C5.1_H5.1_A5.1_[T5G]_[A7C]_F5.1_[T8G]_[A10G]_T5.1 (ssRNA) RNA: UUUGACAACUGAUCGUUCUUUCUUGUAGUCGUGUUCUUUCUCGAUCAGUUGUCUUU | 486 nM |
| Ic_S4_P5E.1_K5.1_C5.1_H5.1_A5.1_[T5A]_[T6C]_[A7T]_F5.1_[T8C]_[T9C]_[A10G]_T5.1 (ssRNA) RNA: UUUGACAACUGAUCGUUCUUUCUUGUAACUCCGUUCUUUCUCGAUCAGUUGUCUUU | > 2300 nM |
| Ic_S4_P5E.1_K5.1_C5.1_H5.1_A5.1_[T6C]_[A7T]_F5.1_[T8A]_[T9G]_[A10C]_T5.1 (ssRNA) RNA: UUUGACAACUGAUCGUUCUUUCUUGUAUCUAGCUUCUUUCUCGAUCAGUUGUCUUU | 47.4 nM |
| Ic_S4_P5E.1_K5.1_C5.1_H5.1_A5.1_[A7C]_F5.1_[T8C]_[T9C]_T5.1 (ssRNA) RNA: UUUGACAACUGAUCGUUCUUUCUUGUAUUCCCAUUCUUUCUCGAUCAGUUGUCUUU | 141 nM |
| Ic_S4_P5E.1_K5.1_C5.1_H5.1_A5.1_[T5C]_F5.1_[T8A]_[T9A]_[A10T]_T5.1 (ssRNA) RNA: UUUGACAACUGAUCGUUCUUUCUUGUACUAAAUUUCUUUCUCGAUCAGUUGUCUUU | 18.5 nM |
| Ic_S4_P5E.1_K5.1_C5.1_H5.1_A5.1_[T5A]_[A7C]_F5.1_[T8C]_[T9G]_[A10G]_T5.1 (ssRNA) RNA: UUUGACAACUGAUCGUUCUUUCUUGUAAUCCGGUUCUUUCUCGAUCAGUUGUCUUU | > 2300 nM |
| Ic_S4_P5E.1_K5.1_C5.1_H5.1_A5.1_[T6A]_[A7T]_F5.1_[T8A]_[T9A]_T5.1 (ssRNA) RNA: UUUGACAACUGAUCGUUCUUUCUUGUAUAUAAAUUCUUUCUCGAUCAGUUGUCUUU | 3.86 nM |
| Ic_S4_P5E.1_K5.1_C5.1_H5.1_A5.1_[T5A]_[T6A]_[A7C]_F5.1_[T8G]_[T9C]_[A10C]_T5.1 (ssRNA) RNA: UUUGACAACUGAUCGUUCUUUCUUGUAAACGCCUUCUUUCUCGAUCAGUUGUCUUU | 586 nM |
| Ic_S4_P5E.1_K5.1_C5.1_H5.1_A5.1_[T5G]_[A7C]_F5.1_[T8G]_T5.1 (ssRNA) RNA: UUUGACAACUGAUCGUUCUUUCUUGUAGUCGUAUUCUUUCUCGAUCAGUUGUCUUU | 26.3 nM |
| UCUCUUUGUAUCUUGUCUCUU (ssRNA) [Ib_S1_P4E.1_K4.1_C4.1_H4.1_A4.1_[A6C]_F4.1_[A9G]_T4.1] | 25.9 nM |
| Ic_S4_P5E.1_K5.1_C5.1_H5.1_A5.1_[A7T]_F5.1_[T8A]_[A10G]_T5.1 (ssRNA) RNA: UUUGACAACUGAUCGUUCUUUCUUGUAUUUAUGUUCUUUCUCGAUCAGUUGUCUUU | 12.4 nM |
| Ic_S4_P5E.1_K5.1_C5.1_H5.1_A5.1_[T5C]_[T6C]_[A7C]_F5.1_[T9A]_[A10G]_T5.1 (ssRNA) RNA: UUUGACAACUGAUCGUUCUUUCUUGUACCCUAGUUCUUUCUCGAUCAGUUGUCUUU | 6.26 nM |
| Ic_S4_P5E.1_K5.1_C5.1_H5.1_A5.1_[A7T]_F5.1_[T8C]_[T9A]_T5.1 (ssRNA) RNA: UUUGACAACUGAUCGUUCUUUCUUGUAUUUCAAUUCUUUCUCGAUCAGUUGUCUUU | 452 nM |
| Ic_S4_P5E.1_K5.1_C5.1_H5.1_A5.1_[T5C]_[T6A]_[A7C]_F5.1_[T8A]_[T9A]_T5.1 (ssRNA) RNA: UUUGACAACUGAUCGUUCUUUCUUGUACACAAAUUCUUUCUCGAUCAGUUGUCUUU | 15.5 nM |
| Ic_S4_P5E.1_K5.1_C5.1_H5.1_A5.1_[T5C]_[T6G]_[A7T]_F5.1_[T8A]_[T9A]_[A10T]_T5.1 (ssRNA) RNA: UUUGACAACUGAUCGUUCUUUCUUGUACGUAAUUUCUUUCUCGAUCAGUUGUCUUU | 67.6 nM |
| Ic_S4_P5E.1_K5.1_C5.1_H5.1_A5.1_[T5C]_[T6C]_F5.1_[T9A]_[A10C]_T5.1 (ssRNA) RNA: UUUGACAACUGAUCGUUCUUUCUUGUACCAUACUUCUUUCUCGAUCAGUUGUCUUU | 2.7 nM |
| Ic_S4_P5E.1_K5.1_C5.1_H5.1_A5.1_[T5C]_[T6G]_[A7T]_F5.1_[T8C]_[T9A]_[A10T]_T5.1 (ssRNA) RNA: UUUGACAACUGAUCGUUCUUUCUUGUACGUCAUUUCUUUCUCGAUCAGUUGUCUUU | 98.8 nM |
| Ic_S4_P5E.1_K5.1_C5.1_H5.1_A5.1_[T5G]_[A7T]_F5.1_[T8A]_[A10T]_T5.1 (ssRNA) RNA: UUUGACAACUGAUCGUUCUUUCUUGUAGUUAUUUUCUUUCUCGAUCAGUUGUCUUU | 85.3 nM |

| Binder | Kd |
| --- | --- |
| Ic_S4_P5E.1_K5.1_C5.1_H5.1_A5.1_[T5C]_[T6G]_[A7T]_F5.1_[T8G]_[T9G]_[A10T]_T5.1 (ssRNA) RNA: UUUGACAACUGAUCGUUCUUUCUUGUACGUGGUUUCUUUCUCGAUCAGUUGUCUUU | 195 nM |
| Ic_S4_P5E.1_K5.1_C5.1_H5.1_A5.1_[T6A]_[A7C]_F5.1_[T8G]_[T9G]_[A10T]_T5.1 (ssRNA) RNA: UUUGACAACUGAUCGUUCUUUCUUGUAUACGGUUUCUUUCUCGAUCAGUUGUCUUU | 510 nM |
| UCUCUUUGUAUUUUGUCUCUU (ssRNA) [Ic_S1_P4E.1_K4.1_C4.1_H4.1_A4.1_[A6T]_F4.1_[A9G]_T4.1] | 15.2 nM |
| Ic_S4_P5E.1_K5.1_C5.1_H5.1_A5.1_[T5C]_[A7T]_F5.1_[T8C]_[T9A]_[A10T]_T5.1 (ssRNA) RNA: UUUGACAACUGAUCGUUCUUUCUUGUACUUCAUUUCUUUCUCGAUCAGUUGUCUUU | 103 nM |
| Ic_S4_P5E.1_K5.1_C5.1_H5.1_A5.1_[T6C]_[A7T]_F5.1_[T8A]_[A10C]_T5.1 (ssRNA) RNA: UUUGACAACUGAUCGUUCUUUCUUGUAUCUAUCUUCUUUCUCGAUCAGUUGUCUUU | 13.6 nM |
| Ic_S4_P5E.1_K5.1_C5.1_H5.1_A5.1_[T5A]_[A7T]_F5.1_[T8G]_[T9C]_[A10C]_T5.1 (ssRNA) RNA: UUUGACAACUGAUCGUUCUUUCUUGUAAUUGCCUUCUUUCUCGAUCAGUUGUCUUU | 400 nM |
| Ic_S4_P5E.1_K5.1_C5.1_H5.1_A5.1_[A7T]_F5.1_[T8C]_[T9G]_[A10T]_T5.1 (ssRNA) RNA: UUUGACAACUGAUCGUUCUUUCUUGUAUUUCGUUUCUUUCUCGAUCAGUUGUCUUU | 62.1 nM |
| Ic_S4_P5E.1_K5.1_C5.1_H5.1_A5.1_[T6G]_[A7C]_F5.1_[T8G]_[T9C]_[A10T]_T5.1 (ssRNA) RNA: UUUGACAACUGAUCGUUCUUUCUUGUAUGCGCUUUCUUUCUCGAUCAGUUGUCUUU | 542 nM |
| Ic_S4_P5E.1_K5.1_C5.1_H5.1_A5.1_[T5A]_[T6A]_[A7C]_F5.1_[T9A]_T5.1 (ssRNA) RNA: UUUGACAACUGAUCGUUCUUUCUUGUAAACUAAUUCUUUCUCGAUCAGUUGUCUUU | 4.37 nM |
| Ic_S4_P5E.1_K5.1_C5.1_H5.1_A5.1_[T5A]_[T6C]_[A7C]_F5.1_[T8C]_[T9A]_[A10T]_T5.1 (ssRNA) RNA: UUUGACAACUGAUCGUUCUUUCUUGUAACCCAUUUCUUUCUCGAUCAGUUGUCUUU | 531 nM |
| Ic_S4_P5E.1_K5.1_C5.1_H5.1_A5.1_[T5C]_[T6C]_F5.1_[T8G]_[T9C]_[A10T]_T5.1 (ssRNA) RNA: UUUGACAACUGAUCGUUCUUUCUUGUACCAGCUUUCUUUCUCGAUCAGUUGUCUUU | 650 nM |
| Ic_S4_P5E.1_K5.1_C5.1_H5.1_A5.1_[A7T]_F5.1_[T8G]_[T9C]_[A10G]_T5.1 (ssRNA) RNA: UUUGACAACUGAUCGUUCUUUCUUGUAUUUGCGUUCUUUCUCGAUCAGUUGUCUUU | 196 nM |
| Ic_S4_P5E.1_K5.1_C5.1_H5.1_A5.1_[T5C]_[T6G]_[A7T]_F5.1_[T9A]_T5.1 (ssRNA) RNA: UUUGACAACUGAUCGUUCUUUCUUGUACGUUAAUUCUUUCUCGAUCAGUUGUCUUU | 4.22 nM |
| UCUCUUUGUAUGUUCUCUCUU (ssRNA) [Ic_S1_P4E.1_K4.1_C4.1_H4.1_A4.1_[A6G]_F4.1_[A9C]_T4.1] | 54.6 nM |
| Ic_S4_P5E.1_K5.1_C5.1_H5.1_A5.1_[T5A]_[A7T]_F5.1_[T9C]_[A10T]_T5.1 (ssRNA) RNA: UUUGACAACUGAUCGUUCUUUCUUGUAAUUUCUUUCUUUCUCGAUCAGUUGUCUUU | 32.8 nM |
| Ic_S4_P5E.1_K5.1_C5.1_H5.1_A5.1_[T5C]_[T6C]_F5.1_[T8G]_[A10G]_T5.1 (ssRNA) RNA: UUUGACAACUGAUCGUUCUUUCUUGUACCAGUGUUCUUUCUCGAUCAGUUGUCUUU | 124 nM |
| Ic_S4_P5E.1_K5.1_C5.1_H5.1_A5.1_[T5C]_[T6C]_F5.1_[T8A]_[T9A]_[A10C]_T5.1 (ssRNA) RNA: UUUGACAACUGAUCGUUCUUUCUUGUACCAAACUUCUUUCUCGAUCAGUUGUCUUU | 158 nM |
| Ic_S4_P5E.1_K5.1_C5.1_H5.1_A5.1_[T5C]_[A7T]_F5.1_[T8C]_[T9G]_[A10T]_T5.1 (ssRNA) RNA: UUUGACAACUGAUCGUUCUUUCUUGUACUUCGUUUCUUUCUCGAUCAGUUGUCUUU | 199 nM |
| Ic_S4_P5E.1_K5.1_C5.1_H5.1_A5.1_[T5A]_[T6A]_[A7C]_F5.1_[T9A]_[A10T]_T5.1 (ssRNA) RNA: UUUGACAACUGAUCGUUCUUUCUUGUAAACUAUUUCUUUCUCGAUCAGUUGUCUUU | 2.41 nM |
